In US20140120625:

Biological target: FLPe (thermostable FLP variant) (UniProt P03870)
Experiment: cell_activity

Chain of UniProt P03870 (P03870 whole entry, change not shown): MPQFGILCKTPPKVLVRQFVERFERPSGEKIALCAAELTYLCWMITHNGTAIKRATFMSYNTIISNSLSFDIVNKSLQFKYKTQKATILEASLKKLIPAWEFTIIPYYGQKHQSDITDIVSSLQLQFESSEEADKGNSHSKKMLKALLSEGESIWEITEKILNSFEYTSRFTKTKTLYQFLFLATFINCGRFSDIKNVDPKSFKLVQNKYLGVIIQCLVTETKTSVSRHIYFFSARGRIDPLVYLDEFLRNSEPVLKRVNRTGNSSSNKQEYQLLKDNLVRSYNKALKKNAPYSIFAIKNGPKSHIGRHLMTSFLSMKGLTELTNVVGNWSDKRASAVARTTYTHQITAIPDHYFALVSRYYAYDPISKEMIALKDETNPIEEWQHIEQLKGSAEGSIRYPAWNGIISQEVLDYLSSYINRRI

Sequence | binding signal (simultaneous four-locus gene swapping frequency in A. niger M1146, FRT-F/FRT-F3 pair) | binding signal (same assay, paired with FRT-F)
TTGAAGTTCCTATTCCGAGTTCCTATTCTCTAGAAAGTATAGGAACTTC (double strand) [FRT-F] | 3 fold vs FLP | 
TTGAAGTTCCTATTCCGAGTTCCTATTCTTCAAATAGTATAGGAACTTCA (double strand) [FRT-F3] |  | 3 fold vs FLP
